This note sets out measurements from article PMC12063641.

“And” between values parts separate entries of the source, which are not always exact repeats. Identical values can stand only once.

For assay [1], the target named is purified recombinant MA L20K/E73K/A82T mutant protein (HIV-1). As to the kind of experiment: SDS-PAGE of purified protein (SDS-resistant oligomer bands).
Assay [2] concerns the target HIV-1 NL4-3 matrix protein p17 (MA) L20K/E73K/A82T, in mature virions or VLPs (HIV-1 (NL4-3)). As to the kind of experiment: SDS-resistant oligomer bands on SDS-PAGE and Western blot. In general terms: Immunoblotting shows a protein as a band on a membrane.
Assay [3] concerns the target HIV-1 NL4-3 Gag polyprotein precursor Pr55Gag with MA-L20K/E73K/A82T, uncleaved in immature VLPs (PR-D25N) (HIV-1 (NL4-3)). As to the kind of experiment: cryo-EM structure.
Assay [4] addresses HIV-1 NL4-3 matrix protein p17 (MA) L20K, in mature virions or VLPs (HIV-1 (NL4-3)). In words: SDS-resistant oligomer bands on SDS-PAGE and Western blot.

A word on the stoichiometry N: it is the number of molecules, sites or subunits per partner or assembly. As for “purified recombinant MA L20K/E73K/A82T mutant protein (domain or fragment)”, the stoichiometry N in assay [1] was 2 and 3.
For “HIV-1 NL4-3 matrix protein p17 (MA) L20K/E73K/A82T, in mature virions or VLPs (natural protein)”, in assay [2], the stoichiometry N is 2 and 3.
For the substance “HIV-1 NL4-3 Gag polyprotein precursor Pr55Gag with MA-L20K/E73K/A82T, uncleaved in immature VLPs (PR-D25N) (natural protein)”, in assay [3], the stoichiometry N was 3 and 6.
“HIV-1 NL4-3 matrix protein p17 (MA) L20K, in mature virions or VLPs (natural protein)”: in assay [4], the stoichiometry N is 2 and 3.
